In the Human Domainome abundance scans (Beltran et al. 2025):
± gives the uncertainty stated by the source.

B1: Zinc finger homeobox protein 3, residues 2244 to 2299; numbered along this chain, Q15911 (parent)
chain: SSRTRFTDYQLRVLQDFFDANAYPKDDEFEQLSNLLNLPTRVIVVWFQNARQKARK

Variants of: B1
Assay: abundance fitness (aPCA) (normalised: wild type 0, dead -1); higher = more abundant; growth selection in yeast, the domain comes from the species named
Details: Homo sapiens

| Variant | abundance fitness |
| --- | --- |
| T4W | -0.656 ± 0.11 |
| S2M | 0.321 ± 0.18 |
| L38P | -1.03 ± 0.19 |
| D16Q | -0.035 ± 0.15 |
| T4R | -0.388 ± 0.082 |
| Y23K | -0.13 ± 0.099 |
| L38H | -0.967 ± 0.3 |
| L11W | -0.361 ± 0.11 |
| Q48F | -0.245 ± 0.19 |
| N21K | 0.166 ± 0.14 |
| L35P | -0.918 ± 0.2 |
| D19P | -0.686 ± 0.5 |
| T7V | -0.614 ± 0.094 |
| S2H | -0.043 ± 0.22 |
| A22Y | -0.196 ± 0.098 |
| N37I | -0.289 ± 0.16 |
| L38Y | -0.625 ± 0.25 |
| R12W | -0.504 ± 0.16 |
| D19G | -0.414 ± 0.15 |
| N37S | -0.064 ± 0.096 |
| T4S | 0.024 ± 0.093 |
| P24S | -0.734 ± 0.27 |
| L32M | 0.003 ± 0.11 |
| W46M | -0.81 ± 0.14 |

| Variant | abundance fitness |
| --- | --- |
| L14R | -0.93 ± 0.1 |
| D8V | -0.405 ± 0.086 |
| V45F | -0.171 ± 0.1 |
| F6P | -0.774 ± 0.091 |
| F6V | -0.21 ± 0.077 |
| R5T | 0.274 ± 0.084 |
| N49C | -0.163 ± 0.12 |
| L36H | -1.06 ± 0.46 |
| N49A | -0.222 ± 0.11 |
| D16G | -0.023 ± 0.077 |
| D27I | -0.17 ± 0.15 |
| V44S | 0.08 ± 0.13 |
| R41A | 0.022 ± 0.079 |
| R55D | -0.104 ± 0.2 |
| N21H | 0.031 ± 0.18 |
| I43M | -0.439 ± 0.14 |
| L11K | -0.146 ± 0.18 |
| L38Q | -0.174 ± 0.13 |
| F47A | -0.729 ± 0.1 |
| E30G | -0.357 ± 0.38 |
| N34Y | -0.161 ± 0.41 |
| L35H | -0.088 ± 0.14 |
| P24R | -0.633 ± 0.12 |
| N37F | -0.236 ± 0.15 |

| Variant | abundance fitness |
| --- | --- |
| R12T | -0.136 ± 0.073 |
| L38N | -0.76 ± 0.47 |
| T40G | -0.208 ± 0.077 |
| S2K | -0.194 ± 0.18 |
| L14Y | -1.05 ± 0.31 |
| V44E | -0.059 ± 0.11 |
| T40A | -0.119 ± 0.079 |
| D27T | -0.078 ± 0.091 |
| F17R | 0.084 ± 0.076 |
| V42E | 0.174 ± 0.11 |
| V42N | 0.003 ± 0.18 |
| R5V | 0.362 ± 0.069 |
| L36D | -0.908 ± 0.28 |
| R3I | 0.108 ± 0.19 |
| V13I | -0.359 ± 0.24 |
| T40P | -0.047 ± 0.089 |
| D27Q | -0.121 ± 0.11 |
| L38F | -0.522 ± 0.31 |
| K25V | -0.115 ± 0.086 |
| T40L | -0.105 ± 0.073 |
| R3E | 0.038 ± 0.11 |
| S1N | 0.158 ± 0.3 |
| N49H | -0.249 ± 0.21 |
| F18G | -0.984 ± 0.11 |

| Variant | abundance fitness |
| --- | --- |
| P39Y | -0.99 ± 0.12 |
| Q52P | -0.263 ± 0.068 |
| R3G | 0.281 ± 0.068 |
| R5M | 0.478 ± 0.11 |
| Q15N | -0.077 ± 0.18 |
| V45T | -0.028 ± 0.074 |
| V13A | -0.018 ± 0.099 |
| R12Y | -0.524 ± 0.081 |
| K53P | -0.237 ± 0.082 |
| F6T | -0.433 ± 0.09 |
| F29V | -0.102 ± 0.079 |
| A22K | -0.17 ± 0.11 |
| V13T | -0.116 ± 0.11 |
| K25F | -0.338 ± 0.21 |
| R55C | -0.229 ± 0.12 |
| Y9N | -0.097 ± 0.16 |
| L32S | -0.812 ± 0.13 |
| L35S | 0.007 ± 0.096 |
| S33T | -0.316 ± 0.14 |
| A22L | -0.129 ± 0.07 |
| V13M | 0.173 ± 0.1 |
| A20P | -0.543 ± 0.18 |
| L14M | -0.019 ± 0.11 |
| F17Q | -0.47 ± 0.14 |

| Variant | abundance fitness |
| --- | --- |
| Y9K | 0.162 ± 0.13 |
| F6H | -0.672 ± 0.1 |
| I43Q | -0.637 ± 0.19 |
| F18K | -0.625 ± 0.14 |
| R41D | 0.173 ± 0.1 |
| Q15Y | -0.559 ± 0.31 |
| F6R | -0.703 ± 0.092 |
| V44A | -0.134 ± 0.1 |
| D8T | -0.158 ± 0.1 |
| E28L | -0.739 ± 0.11 |
| L14G | -0.931 ± 0.095 |
| Q10R | -0.724 ± 0.093 |
| K25S | -0.133 ± 0.11 |
| Q10M | -0.216 ± 0.12 |
| L35F | -0.382 ± 0.25 |
| R55A | -0.172 ± 0.12 |
| N21Q | -0.26 ± 0.13 |
| S1G | 0.256 ± 0.15 |
| R55I | -0.093 ± 0.097 |
| E28M | -0.347 ± 0.14 |
| L38S | -0.506 ± 0.11 |
| K56A | 0.063 ± 0.2 |
| D8A | -0.123 ± 0.082 |
| V42C | -0.112 ± 0.13 |

| Variant | abundance fitness |
| --- | --- |
| Q31A | -0.192 ± 0.12 |
| T40S | 0.025 ± 0.073 |
| L14P | -0.832 ± 0.19 |
| V44T | -0.056 ± 0.15 |
| K56N | 0.103 ± 0.14 |
| A50Y | -0.196 ± 0.1 |
| P24T | -0.856 ± 0.35 |
| L36K | -0.95 ± 0.34 |
| F17C | -0.222 ± 0.15 |
| N37V | -0.117 ± 0.086 |
| R41M | 0.005 ± 0.1 |
| N21R | -0.237 ± 0.083 |
| R55Y | -0.073 ± 0.13 |
| A22M | 0.106 ± 0.11 |
| R5K | 0.29 ± 0.11 |
| L14Q | -0.549 ± 0.18 |
| Q10I | -0.769 ± 0.38 |
| D8N | -0.237 ± 0.15 |
| R55Q | 0.049 ± 0.15 |
| A20W | -0.36 ± 0.11 |
| F29W | -0.27 ± 0.094 |
| F29N | -0.622 ± 0.16 |
| N34Q | -0.208 ± 0.26 |
| F17A | 0.17 ± 0.1 |

| Variant | abundance fitness |
| --- | --- |
| T40W | -0.136 ± 0.11 |
| P39W | -1.08 ± 0.23 |
| Y9M | -0.005 ± 0.12 |
| V13N | -0.244 ± 0.18 |
| T4E | -0.357 ± 0.15 |
| V13Q | 0.168 ± 0.12 |
| Q15S | -0.22 ± 0.096 |
| V45K | -0.061 ± 0.095 |
| Q15E | 0.015 ± 0.12 |
| L36E | -0.892 ± 0.18 |
| S2L | 0.026 ± 0.12 |
| D27A | -0.117 ± 0.071 |
| T7Y | -0.446 ± 0.2 |
| Q52M | -0.142 ± 0.11 |
| L32V | -0.151 ± 0.083 |
| D26F | -0.332 ± 0.22 |
| N21V | -0.422 ± 0.099 |
| L38M | -0.026 ± 0.13 |
| L35G | -0.06 ± 0.079 |
| I43D | -0.772 ± 0.18 |
| K56P | 0.004 ± 0.19 |
| P39N | -0.157 ± 0.098 |
| F6A | -0.678 ± 0.098 |
